Experiments:
[1] = Infrared spectroscopy (Fourier self-deconvolution, curve fitting of the amide I region): content of secondary structures; format: physicochemical; conditions: FTIR amide I region; counter-ions K+ and Cl-; pH 5.0
Procedure: Spectra were recorded with a Perkin-Elmer infrared spectrometer 983 G equipped with a Perkin-Elmer microspecular reflectance accessory (ref. P.E. 221-0357). The internal reflection element was a Germanium ATR plate (50 x 20 x 2 mm, Harrick EJ 2121) with an aperture angle of 45° yielding 25 […] reflections. The mean stan rate was 15.5 cm⁻¹/minute and up to 20 accumulations were performed when necessary to improve the signal to noise ratio. The spectrophotometer was continuously purged with air dried on a silica gel column (5 x 130 cm) at a flow rate of 7 l/minute. Spectra were recorded at a nominal resolution of 2 cm⁻¹ and encoded every 0.5 cm⁻¹. At the end of the scan, they are transferred from the memory of the spectrophotometer to an Olivetti M 40 itself coupled to an Olivetti M 24 computer Spectra were Fourier transformed and stored for subsequent treatments.
In both cases the S-pegylated protein eluted from the CM-Sephadex C-50 before the irreversibly oxidized material. […] Indeed : 1. […] The proportions of the different secondary structures were determined, as previously described by Cabiaux et al, 1989, J. Biol. Chem., 264:4928-4938, using the frequency regions for the different structures as follows : 1661-1647 cm⁻¹ : α-helix; 1689-1682 + 1637-1615 cm⁻¹ : β-sheet; 1644.5-1637.7 cm⁻¹ : random and 1682-1661 cm⁻¹ : β-turn. […]

[2] = Acid denaturation: residual amidase activity after incubation in acidic buffer; format: physicochemical; conditions: 40 µM proteinase, 25°C
Procedure: Indeed : • 1. […] Similar results were obtained in the case of papain.
Time course dependence of acid denaturation of S-methylthio PP III (---) and S-pegyl (5000) thio PP III (―) at various pH and at 25°C.
At various time intervals, aliquot were removed and assayed for residual amidase activity using the assay method N° 3.

Molecule	PERCENTAGE OF Random [1]	PERCENTAGE OF α-Helix [1]	PERCENTAGE OF β-Sheet [1]	PERCENTAGE OF β-Turns [1]	lowest pH at which solutions remain stable (acid denaturation) [2]
S-Pegylated Papaya Pectinase III: papaya proteinase III S-pegylated with PEG 5 kDa disulfide derivative	8.3	27.9	36.1	27.7	2.6
S-Pegylated papain: papain modified at its thiol with a 5 kDa PEG chain through a disulfide bond (conjugate, UniProt P00784 134-345, looked up, S-PEG 5 kDa, papain modified at its thiol with a 5 kDa PEG chain through a disulfide bond) Papain: IPEYVDWRQKGAVTPVKNQGSCGSCWAFSAVVTIEGIIKIRTGNLNEYSEQELLDCDRRSYGCNGGYPWSALQLVAQYGIHYRNTYPYEGVQRYCRSREKGPYAAKTDGVRQVQPYNEGALLYSIANQPVSVVLEAAGKDFQLYRGGIFVGPCGNKVDHAVAAVGYGPNYILIKNSWGTGWGENGYIRIKRGTGNSYGVCGLYTSSFYPVKN	8.2	28.2		27.0	

— patent EP0622394A1, “Reversible modification of sulfur-containing molecules with polyalkylene glycol derivatives and their use” (S.A. LABORATOIRES S.M.B., priority 1993, dated 1994)
